These results are taken from US20160297884A1 (Pfizer, published 2016).

One assay concerns the target T1, cynomolgus monkey BCMA (cynomolgus monkey, UniProt A0A2K5UD97 1-53).
T1 construct: Soluble analyte in SPR; construct not described; also called cyBCMA; Cyno BCMA
Nature of the assay: SPR, IgG immobilised, 25 C. As to the method: (§1) All experiments were performed on a Bio-Rad Proteon XPR36 surface Plasmon resonance biosensor (Bio-Rad, Hercules, Calif.). […] The analysis temperature for the immobilization was 25° C. and the running buffer was HBS-T+(10 mM HEPES, 150 mM NaCl, 0.05% Tween-20, pH 7.4). Channels were activated in the analyte (horizontal) direction by injecting a mixture of 1 mM ECD and 0.25 mM NHS for 3 minutes at a flow rate of 30 μL/min. IgGs were immobilized on the activated spots by injecting them in the ligand (vertical) direction at 20 μg/mL in 10 mM Acetate pH 4.5 buffer for 1.5 minutes at […]. The activated surfaces were blocked by injecting 1M ethanolamine, pH 8.5 in the analyte direction for 3 minutes at 30 μL/min.
(§2) The analysis temperature for the BCMA binding analysis was 37° C. or 25° C. in a running buffer of HBS-T+, supplemented with 1 mg/mL BSA. A kinetic titration method was employed for the interaction analysis as described in Abdiche, et al. Human BCMA (huBCMA) or cynomolgus monkey BCMA (cyBCMA) analyte was injected in the analyte direction using a series of injections from low to high concentration. The concentrations used were 0.08 nM, 0.4 nM, 2 nM, 10 nM and 50 nM (a 5-membered series, with a 5-fold dilution factor and top concentration of 50 nM). The association time for a given analyte dilution was two minutes. Immediately after the 50 nM BCMA injection, dissociation was monitored for 2 hours.
(§3) The sensorgrams were double-referenced and fit to a 1:1 Langmuir with mass transport kinetic titration model in BIAevaluation Software version 4.1.1 (GE Lifesciences, Piscataway, N.J.).
A general note: Surface plasmon resonance follows binding to a sensor surface in real time, without labels.

The target in the next assay is T2, Human BCMA (human, UniProt Q02223 1-54, limits assumed).
T2 construct: Soluble analyte in SPR; construct not described; also called huBCMA; B-cell maturation antigen
T2 sequence (looked up): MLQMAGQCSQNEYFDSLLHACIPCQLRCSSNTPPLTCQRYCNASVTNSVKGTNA
Nature of the assay: SPR, IgG immobilised, 25 C. The protocol: as §1, §2, §3

T1 sequence (A0A2K5UD97 entry or part of it): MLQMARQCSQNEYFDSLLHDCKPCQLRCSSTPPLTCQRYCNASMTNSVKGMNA

B1: L1.GDF/L3.PY/H3.AQ (antibody, V domains shown)
VH: EVQLLESGGGLVQPGGSLRLSCAASGFTFGSYAMTWVRQAPGKGLEWVSAISGSGGNTFYADSVKGRFTISRDNSKNTLYLQMNSLRAEDTAVYYCARVSPIAAQMDYWGQGTLVTVSS
VL: EIVLTQSPGTLSLSPGERATLSCRASQSVGDFYLAWYQQKPGQAPRLLIYGASSRATGIPDRFSGSGSGTDFTLTISRLEPEDFAVYYCQHYPYPPSFTFGQGTKVEIK
notes: IgG
As a reminder, the Kd is a measure of binding affinity in units of concentration. For orientation: koff means the rate constant with which the complex falls apart. What is called kon is the rate constant with which the complex forms. Turning to B1, in the assay with cynomolgus monkey BCMA, the affinity, expressed as Kd, was 10.7 nM; the “T ½” value was 0.7 min; the koff came out at 0.0166 s⁻¹; the kon stood at 1.55e+06 M⁻¹ s⁻¹. Besides, in the assay with Human BCMA, the Kd amounted to 9.49 nM, the “T ½” value was 0.86 min, the dissociation rate constant (koff) is 0.0135 s⁻¹ and the on-rate constant (kon) was found to be 1.42e+06 M⁻¹ s⁻¹.

B2: L1.LGF/L3.PY/H3.AQ (antibody, V domains shown)
VH: EVQLLESGGGLVQPGGSLRLSCAASGFTFGSYAMTWVRQAPGKGLEWVSAISGSGGNTFYADSVKGRFTISRDNSKNTLYLQMNSLRAEDTAVYYCARVSPIAAQMDYWGQGTLVTVSS
VL: EIVLTQSPGTLSLSPGERATLSCRASQSLGSFYLAWYQQKPGQAPRLLIYGASSRATGIPDRFSGSGSGTDFTLTISRLEPEDFAVYYCQHYPYPPSFTFGQGTKVEIK
notes: IgG
Consider B2, for which, in the assay with cynomolgus monkey BCMA, binding was characterised by a dissociation constant (Kd) of 4.8 nM, the “T ½” value is 2.4 min, the koff was determined as 0.00477 s⁻¹ and the kon came out at 1e+06 M⁻¹ s⁻¹. In addition, in the assay with Human BCMA, the Kd worked out at 0.95 nM, the “T ½” value stood at 13 min, the off-rate constant (koff) is 0.000886 s⁻¹ and the kon was found to be 931000 M⁻¹ s⁻¹.

B3: L1.LGF/L3.KW/H3.AQ (antibody, V domains shown)
VH: EVQLLESGGGLVQPGGSLRLSCAASGFTFGSYAMTWVRQAPGKGLEWVSAISGSGGNTFYADSVKGRFTISRDNSKNTLYLQMNSLRAEDTAVYYCARVSPIAAQMDYWGQGTLVTVSS
VL: EIVLTQSPGTLSLSPGERATLSCRASQSLGSFYLAWYQQKPGQAPRLLIYGASSRATGIPDRFSGSGSGTDFTLTISRLEPEDFAVYYCKHYGWPPSFTFGQGTKVEIK
notes: IgG
Consider B3, for which, in the assay with cynomolgus monkey BCMA, the Kd stood at 6.7 nM, the “T ½” value was 3.3 min, the koff was 0.00355 s⁻¹ and the kon came to 527000 M⁻¹ s⁻¹. In the assay with Human BCMA, the Kd was found to be 1.82 nM, the “T ½” value is 12.1 min, the off-rate (koff) turned out to be 0.000956 s⁻¹ and the kon worked out at 524000 M⁻¹ s⁻¹.

B4: L3.KW/P6E01 (antibody, V domains shown)
VH: EVQLLESGGGLVQPGGSLRLSCAASGFTFGSYAMTWVRQAPGKGLEWVSAISGSGGNTFYADSVKGRFTISRDNSKNTLYLQMNSLRAEDTAVYYCARVSPIASGMDYWGQGTLVTVSS
VL: EIVLTQSPGTLSLSPGERATLSCRASQSVSSSYLAWYQQKPGQAPRLLIYGASSRATGIPDRFSGSGSGTDFTLTISRLEPEDFAVYYCKHYGWPPSFTFGQGTKVEIK
notes: IgG
As for B4, in the assay with cynomolgus monkey BCMA, binding was put at a Kd of 3.4 nM, the “T ½” value was found to be 4.5 min, the dissociation rate constant (koff) stood at 0.00257 s⁻¹ and the kon was found to be 763000 M⁻¹ s⁻¹. Besides, in the assay with Human BCMA, the Kd is 0.43 nM, the “T ½” value is 36.7 min, the koff worked out at 0.000315 s⁻¹ and the kon worked out at 740000 M⁻¹ s⁻¹.

B5: L1.LGF/L3.NY/P6E01 (antibody, V domains shown)
VH: EVQLLESGGGLVQPGGSLRLSCAASGFTFGSYAMTWVRQAPGKGLEWVSAISGSGGNTFYADSVKGRFTISRDNSKNTLYLQMNSLRAEDTAVYYCARVSPIASGMDYWGQGTLVTVSS
VL: EIVLTQSPGTLSLSPGERATLSCRASQSLGSFYLAWYQQKPGQAPRLLIYGASSRATGIPDRFSGSGSGTDFTLTISRLEPEDFAVYYCQHYNYPPSFTFGQGTKVEIK
notes: IgG
B5: in the assay with cynomolgus monkey BCMA, the Kd stood at 11.4 nM, the “T ½” value is 1.1 min, the koff worked out at 0.0105 s⁻¹ and the kon was found to be 920000 M⁻¹ s⁻¹. Further, in the assay with Human BCMA, the affinity, expressed as Kd, was 3.32 nM; the “T ½” value is 2.63 min; the off-rate constant (koff) is 0.0044 s⁻¹; the kon amounted to 1.33e+06 M⁻¹ s⁻¹.

B6: L1.LGF/L3.KW/H3.AP (antibody, V domains shown)
VH: EVQLLESGGGLVQPGGSLRLSCAASGFTFGSYAMTWVRQAPGKGLEWVSAISGSGGNTFYADSVKGRFTISRDNSKNTLYLQMNSLRAEDTAVYYCARVSPIAAPMDYWGQGTLVTVSS
VL: EIVLTQSPGTLSLSPGERATLSCRASQSLGSFYLAWYQQKPGQAPRLLIYGASSRATGIPDRFSGSGSGTDFTLTISRLEPEDFAVYYCKHYGWPPSFTFGQGTKVEIK
notes: IgG
For B6, in the assay with cynomolgus monkey BCMA, the Kd was determined as 27.8 nM, the “T ½” value is 0.7 min, the koff is 0.0154 s⁻¹ and the kon amounted to 554000 M⁻¹ s⁻¹. In the assay with Human BCMA, the Kd amounted to 2.44 nM, the “T ½” value was 5.1 min, the koff came out at 0.00227 s⁻¹ and the kon was found to be 928000 M⁻¹ s⁻¹.

B7: L1.LGF/L3.NY/H3.AQ (antibody, V domains shown)
VH: EVQLLESGGGLVQPGGSLRLSCAASGFTFGSYAMTWVRQAPGKGLEWVSAISGSGGNTFYADSVKGRFTISRDNSKNTLYLQMNSLRAEDTAVYYCARVSPIAAQMDYWGQGTLVTVSS
VL: EIVLTQSPGTLSLSPGERATLSCRASQSLGSFYLAWYQQKPGQAPRLLIYGASSRATGIPDRFSGSGSGTDFTLTISRLEPEDFAVYYCQHYNYPPSFTFGQGTKVEIK
notes: IgG
With B7, in the assay with cynomolgus monkey BCMA, binding was put at a Kd of 2 nM, the “T ½” value was found to be 7.8 min, the koff came to 0.00148 s⁻¹ and the kon is 751000 M⁻¹ s⁻¹. Further, in the assay with Human BCMA, binding was put at a Kd of 0.45 nM, the “T ½” value stood at 38.6 min, the koff came to 0.000299 s⁻¹ and the on-rate constant (kon) was 666000 M⁻¹ s⁻¹.

B8: L1.LGF/L3.PY/H3.AP (antibody, V domains shown)
VH: EVQLLESGGGLVQPGGSLRLSCAASGFTFGSYAMTWVRQAPGKGLEWVSAISGSGGNTFYADSVKGRFTISRDNSKNTLYLQMNSLRAEDTAVYYCARVSPIAAPMDYWGQGTLVTVSS
VL: EIVLTQSPGTLSLSPGERATLSCRASQSLGSFYLAWYQQKPGQAPRLLIYGASSRATGIPDRFSGSGSGTDFTLTISRLEPEDFAVYYCQHYPYPPSFTFGQGTKVEIK
notes: IgG
Consider B8, for which, in the assay with cynomolgus monkey BCMA, the affinity, expressed as Kd, was 35.8 nM; the “T ½” value is 0.9 min; the koff worked out at 0.013 s⁻¹; the kon was found to be 364000 M⁻¹ s⁻¹. Further, in the assay with Human BCMA, the Kd stood at 2.12 nM, the “T ½” value worked out at 11.9 min, the koff stood at 0.000969 s⁻¹ and the kon was 457000 M⁻¹ s⁻¹.

B9: L1.LGF/L3.NY/H3.AL (antibody, V domains shown)
VH: EVQLLESGGGLVQPGGSLRLSCAASGFTFGSYAMTWVRQAPGKGLEWVSAISGSGGNTFYADSVKGRFTISRDNSKNTLYLQMNSLRAEDTAVYYCARVSPIAALMDYWGQGTLVTVSS
VL: EIVLTQSPGTLSLSPGERATLSCRASQSLGSFYLAWYQQKPGQAPRLLIYGASSRATGIPDRFSGSGSGTDFTLTISRLEPEDFAVYYCQHYNYPPSFTFGQGTKVEIK
notes: IgG
On to B9, for which, in the assay with cynomolgus monkey BCMA, the Kd came out at 23.2 nM, the “T ½” value came to 0.8 min, the koff came out at 0.0148 s⁻¹ and the kon was found to be 635000 M⁻¹ s⁻¹. In the assay with Human BCMA, the equilibrium dissociation constant (Kd) came out at 1.27 nM, the “T ½” value is 11.9 min, the off-rate constant (koff) amounted to 0.00097 s⁻¹ and the kon came to 763000 M⁻¹ s⁻¹.

B10: L1.LGF/L3.NY/H3.AP (antibody, V domains shown)
VH: EVQLLESGGGLVQPGGSLRLSCAASGFTFGSYAMTWVRQAPGKGLEWVSAISGSGGNTFYADSVKGRFTISRDNSKNTLYLQMNSLRAEDTAVYYCARVSPIAAPMDYWGQGTLVTVSS
VL: EIVLTQSPGTLSLSPGERATLSCRASQSLGSFYLAWYQQKPGQAPRLLIYGASSRATGIPDRFSGSGSGTDFTLTISRLEPEDFAVYYCQHYNYPPSFTFGQGTKVEIK
notes: IgG
Consider B10, for which, in the assay with cynomolgus monkey BCMA, the Kd turned out to be 6.7 nM, the “T ½” value turned out to be 2.1 min, the off-rate (koff) turned out to be 0.00557 s⁻¹ and the kon stood at 830000 M⁻¹ s⁻¹. Moreover, in the assay with Human BCMA, the Kd is 0.57 nM, the “T ½” value turned out to be 21.7 min, the koff was found to be 0.000533 s⁻¹ and the kon was 936000 M⁻¹ s⁻¹.

B11: L1.LGF/L3.KW/H3.AL (antibody, V domains shown)
VH: EVQLLESGGGLVQPGGSLRLSCAASGFTFGSYAMTWVRQAPGKGLEWVSAISGSGGNTFYADSVKGRFTISRDNSKNTLYLQMNSLRAEDTAVYYCARVSPIAALMDYWGQGTLVTVSS
VL: EIVLTQSPGTLSLSPGERATLSCRASQSLGSFYLAWYQQKPGQAPRLLIYGASSRATGIPDRFSGSGSGTDFTLTISRLEPEDFAVYYCKHYGWPPSFTFGQGTKVEIK
notes: IgG
As for B11, in the assay with cynomolgus monkey BCMA, the Kd came out at 41.8 nM, the “T ½” value was 1 min, the koff came out at 0.0121 s⁻¹ and the kon was determined as 290000 M⁻¹ s⁻¹. In the assay with Human BCMA, the Kd turned out to be 2.87 nM, the “T ½” value was 9.4 min, the koff came out at 0.00123 s⁻¹ and the kon was 428000 M⁻¹ s⁻¹.

B12: L1.LGF/L3.KW/P6E01 (antibody, V domains shown)
VH: EVQLLESGGGLVQPGGSLRLSCAASGFTFGSYAMTWVRQAPGKGLEWVSAISGSGGNTFYADSVKGRFTISRDNSKNTLYLQMNSLRAEDTAVYYCARVSPIASGMDYWGQGTLVTVSS
VL: EIVLTQSPGTLSLSPGERATLSCRASQSLGSFYLAWYQQKPGQAPRLLIYGASSRATGIPDRFSGSGSGTDFTLTISRLEPEDFAVYYCKHYGWPPSFTFGQGTKVEIK
notes: IgG
In the case of B12, in the assay with cynomolgus monkey BCMA, the Kd stood at 42.8 nM, the “T ½” value is 0.6 min, the koff worked out at 0.0195 s⁻¹ and the kon amounted to 455000 M⁻¹ s⁻¹. Moreover, in the assay with Human BCMA, the Kd amounted to 9.08 nM, the “T ½” value is 1.53 min, the koff turned out to be 0.00755 s⁻¹ and the kon was found to be 831000 M⁻¹ s⁻¹.
